In US20180244768A1 (published 2018):

T1: human thyroglobulin (TG) peptide on HLA-A*02:01 (human)
T1 peptide: NLFGGKFLV

T2: human thyroglobulin (TG) peptide on HLA-A*02:01 (human)
T2 peptide: LVLEIFTLL


Tests used:
[1] = target: T1, human thyroglobulin (TG) peptide on …; assay: cytokine release
Method: (§1) Interferon (IFN)-γ release by transduced PBL was determined as previously described in Wang et al., J. Immunol. Methods, 366(1-2): 43-51 (2011). Briefly, retrovirally-transduced cells (1×10⁵) were co-cultured with 5×10⁴ target cells (XTC, XTC/A2, Cos A2, or Cos A2 transfected with TG) or control tumor cell lines for 18-22 hrs in RPMI with 10% FBS at 37° C., 5% CO₂. On the subsequent day, IFN-γ secretion was determined by enzyme-linked immunosorbent assay (ELISA).

[2] = target: T2, human thyroglobulin (TG) peptide on …; assay: cytokine release
Method: as §1

binding result [1]	binding result [2]	Binder
recognises		murine anti-TG TCR (TCR, V domains shown) Valpha: GEQVEQRPPHLSVREGDSAVIICTYTDPNSYYFFWYKQEPGAGLQLLMKVFSSTEINEGQGFTVLLNKKDKQLSLNLTAAHPGDSAVYFCAVSSSGSWQLIFGSGTQLTVMP Vbeta: NSKVIQTPRYLVKGQGQKAKMRCIPEKGHPVVFWYQQNKNNEFKFLINFQNQEVLQQIDMTEKRFSAECPSNSPCSLEIQSSEAGDSALYLCASLGGSQDTQYFGPGTRLLVL
	recognises	human anti-TG TCR (TCR, V domains shown) Valpha: RKEVEQDPGPFNVPEGATVAFNCTYSNSASQSFFWYRQDCRKEPKLLMSVYSSGNEDGRFTAQLNRASQYISLLIRDSKLSDSATYLCVVHSSNTGKLIFGQGTTLQVKP Vbeta: NAGVTQTPKFQVLKTGQSMTLQCAQDMNHEYMSWYRQDPGMGLRLIHYSVGAGITDQGEVPNGYNVSRSTTEDFPLRLLSAAPSQTSVYFCASSYSLTSGGALVSYEQYFGPGTRLTVT
